Source: US20260250402A1 (C O INMAGENE PTE, published 2026)
Where two headings read alike, the source gives them in different places.

Key:
[1] = target: cynomolgus IL-7Ra expressed on CHOK1-cyno IL-7Ra cells (cynomolgus) (UniProt Q38IC7); test: flow cytometry, CHOK1-cyno IL-7Ra cells; negative control
[2] = target: human IL-7Ra expressed on CHOK1-human IL-7Ra cells (human) (UniProt P16871); test: flow cytometry, CHOK1-human IL-7Ra cells; negative control
[3] = target: T1, cynomolgus IL-7Ra expressed on CHOK1-cyno IL-7Ra cells (cynomolgus, UniProt Q38IC7 21-459); test: flow cytometry, CHOK1-cyno IL-7Ra cells
T1 sequence: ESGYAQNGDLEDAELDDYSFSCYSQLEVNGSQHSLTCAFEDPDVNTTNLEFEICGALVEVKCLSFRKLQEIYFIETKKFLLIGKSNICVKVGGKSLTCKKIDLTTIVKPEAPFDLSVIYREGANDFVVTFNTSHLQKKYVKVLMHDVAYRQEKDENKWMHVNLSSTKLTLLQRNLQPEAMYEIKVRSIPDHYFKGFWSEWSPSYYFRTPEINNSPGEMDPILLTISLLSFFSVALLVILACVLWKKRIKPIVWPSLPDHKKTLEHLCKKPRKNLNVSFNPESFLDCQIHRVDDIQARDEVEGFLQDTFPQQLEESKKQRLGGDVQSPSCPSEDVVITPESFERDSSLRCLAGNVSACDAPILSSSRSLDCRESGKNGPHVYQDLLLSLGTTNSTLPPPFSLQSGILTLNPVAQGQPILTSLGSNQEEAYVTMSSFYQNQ

[4] = target: T2, human IL-7Ra expressed on CHOK1-human IL-7Ra cells (human, UniProt P16871 21-459); test: flow cytometry, CHOK1-human IL-7Ra cells
T2 construct: also called human IL-7Ra expressed on cell membrane; CD127
T2 sequence: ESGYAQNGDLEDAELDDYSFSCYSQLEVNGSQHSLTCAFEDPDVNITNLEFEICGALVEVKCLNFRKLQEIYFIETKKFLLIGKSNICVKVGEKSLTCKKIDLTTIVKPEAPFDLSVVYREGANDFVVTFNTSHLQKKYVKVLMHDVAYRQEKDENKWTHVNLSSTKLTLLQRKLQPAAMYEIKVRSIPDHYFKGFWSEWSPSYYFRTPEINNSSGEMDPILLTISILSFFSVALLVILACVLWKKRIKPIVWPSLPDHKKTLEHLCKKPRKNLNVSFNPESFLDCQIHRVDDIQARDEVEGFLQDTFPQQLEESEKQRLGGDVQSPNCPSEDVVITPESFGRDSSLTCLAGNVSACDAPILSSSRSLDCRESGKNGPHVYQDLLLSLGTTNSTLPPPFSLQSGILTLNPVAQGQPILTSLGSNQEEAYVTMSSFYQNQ

[5] = target: T3, Human his-tag IL-7Ra protein (human, UniProt P16871 21-239); test: SPR Biacore 8K, antibody Fc-captured, human his-tag IL-7Ra analyte, 1:1 model
T3 construct: Construct not described; Position of the tag unknown; also called IL-7Ra (Biacore analyte); not shown: his tag
T3 sequence: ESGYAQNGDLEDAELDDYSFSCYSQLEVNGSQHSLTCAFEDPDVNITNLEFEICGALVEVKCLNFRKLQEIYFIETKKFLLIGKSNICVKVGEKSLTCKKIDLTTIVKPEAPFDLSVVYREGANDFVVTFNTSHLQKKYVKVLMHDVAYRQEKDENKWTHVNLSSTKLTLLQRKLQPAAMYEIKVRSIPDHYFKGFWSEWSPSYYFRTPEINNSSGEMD

[6] = target: T2, human IL-7Ra expressed on CHOK1-human …; test: flow cytometry blocking assay: binding of hIL-7-his to CHOK1-human IL-7Ra cells in the presence of the antibody, MFI (right panel)
[7] = target: T4, cynomolgus Fc-tag IL-7Ra protein (cynomolgus, UniProt Q38IC7 21-240); test: ELISA, cynomolgus Fc-tag IL-7Ra protein, HRP-labelled secondary antibody, OD 450 (right panel)
T4 construct: also called cynomolgus IL-7Ra protein; not shown: Fc tag
T4 sequence: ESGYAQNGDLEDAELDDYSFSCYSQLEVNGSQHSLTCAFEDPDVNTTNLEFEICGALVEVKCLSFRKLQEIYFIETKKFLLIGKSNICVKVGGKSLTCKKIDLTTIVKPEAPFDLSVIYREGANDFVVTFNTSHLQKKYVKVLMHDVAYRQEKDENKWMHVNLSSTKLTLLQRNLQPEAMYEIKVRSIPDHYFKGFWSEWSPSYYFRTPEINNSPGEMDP

[8] = target: T1, cynomolgus IL-7Ra expressed on …; test: flow cytometry on CHOK1-cyno IL-7Ra cells, MFI (upper right panel)
[9] = target: T1, cynomolgus IL-7Ra expressed on …; test: as above; remark: listed apart in the source
[10] = target: T5, human Fc-tag IL-7Ra protein (human, UniProt P16871 21-239); test: ELISA, plate coated with human Fc-tag IL-7Ra protein, HRP-labelled secondary antibody, OD 450 (left panel)
T5 construct: also called human IL-7Ra protein; not shown: Fc tag fused to the N-terminus
T5 sequence: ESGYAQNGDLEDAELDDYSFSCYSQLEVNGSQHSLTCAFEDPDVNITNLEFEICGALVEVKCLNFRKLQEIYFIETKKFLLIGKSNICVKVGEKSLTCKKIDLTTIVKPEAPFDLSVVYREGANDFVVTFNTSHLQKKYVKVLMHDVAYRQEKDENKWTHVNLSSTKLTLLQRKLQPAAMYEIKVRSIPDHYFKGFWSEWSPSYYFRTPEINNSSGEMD

[11] = target: T2, human IL-7Ra expressed on CHOK1-human …; test: flow cytometry blocking assay: binding of hIL-7-his (0.1 ug/ml) to CHOK1-human IL-7Ra cells in the presence of the antibody, anti-His Alexa Fluor 488, MFI (right panel)
[12] = target: T2, human IL-7Ra expressed on CHOK1-human …; test: flow cytometry on CHOK1-human IL-7Ra cells, MFI (upper left panel)
[13] = target: T2, human IL-7Ra expressed on CHOK1-human …; test: as above; remark: listed apart in the source
[14] = target: T2, human IL-7Ra expressed on CHOK1-human …; test: flow cytometry blocking assay: binding of hIL-7-his (0.1 ug/ml) to CHOK1-human IL-7Ra cells in the presence of the antibody, anti-His Alexa Fluor 488, MFI (left panel)

Row | Molecule | EC50 [1] [µg/mL] | Top (MFI) [1] [MFI] | EC50 [2] [µg/mL] | Top (MFI) [2] [MFI] | EC50 [3] [µg/mL] | Top (MFI) [3] [MFI] | EC50 [4] [µg/mL] | Top (MFI) [4] [MFI] | Kd [5] [nM] | koff [5] [s⁻¹] | kon [5] [M⁻¹ s⁻¹] | IC50 (read off the curve) [6] [µg/mL] | EC50 (read off the curve) [7] [µg/mL] | EC50 (read off the curve) [8] [µg/mL] | EC50 (read off the curve) [9] [µg/mL] | EC50 (read off the curve) [10] [µg/mL] | IC50 (read off the curve) [11] [µg/mL] | EC50 (read off the curve) [12] [µg/mL] | EC50 (read off the curve) [13] [µg/mL] | IC50 (read off the curve) [14] [µg/mL]
1 | isotype hIgG4 antibody (negative control) | 32.2 | 93.7 | 6.8 | 73 | – | – | – | – | – | – | – | – | – | – | – | – | – | – | – | –
2 | HuAb008 (antibody, V domains shown, Humanized version of cmAb011; also called humanized VL4 / humanized VH2) VH: QVQLVQSGAEVKKPGASVKVSCKASGYRFTDYELHWVRQAPGQGLEWMGGIDPKTGGTAYNQKFKGRVTMTSDRSTSTVYMELSSLRSEDTAVYYCARSGGRWYFDVWGQGTTVTVSS VL: DIVLTQSPDSLAVSLGERATINCRTSESVSIHLLHLMHWYQQKPGQPPKLLIYGASNLESGVPDRFSGSGSETDFTLTISSLQAEDVAVYYCQQSIKDPYTFGGGTKVEIK | – | – | – | – | 0.221 | 17600 | 0.171 | 20400 | 0.118 | 0.00031 | 2.64e+06 | – | – | – | – | – | – | – | – | –
3 | HuAb004 (antibody, V domains shown, Humanized version of cmAb011; also called humanized VL4 / humanized VH1) VH: QVQLVQSGAEVKKPGASVKVSCKASGYRFTDYELHWVRQAPGQGLEWMGGIDPKTGGTAYNQKFKGRVTMTRDTSTSTVYMELSSLRSEDTAVYYCARSGGRWYFDVWGQGTTVTVSS VL: DIVLTQSPDSLAVSLGERATINCRTSESVSIHLLHLMHWYQQKPGQPPKLLIYGASNLESGVPDRFSGSGSETDFTLTISSLQAEDVAVYYCQQSIKDPYTFGGGTKVEIK | – | – | – | – | 0.206 | 16200 | 0.2 | 21500 | 0.181 | 0.00029 | 1.6e+06 | – | – | – | – | – | – | – | – | –
4 | HuAb003 (antibody, V domains shown, Humanized version of cmAb011; also called humanized VL3 / humanized VH1) VH: QVQLVQSGAEVKKPGASVKVSCKASGYRFTDYELHWVRQAPGQGLEWMGGIDPKTGGTAYNQKFKGRVTMTRDTSTSTVYMELSSLRSEDTAVYYCARSGGRWYFDVWGQGTTVTVSS VL: DIVMTQSPDSLAVSLGERATINCRTSESVSIHLLHLMHWYQQKPGQPPKLLIYGASNLESGVPDRFSGSGSGTDFTLTISSLQAEDVAVYYCQQSIKDPYTFGGGTKVEIK | – | – | – | – | 0.239 | 16100 | 0.21 | 21700 | 0.212 | 0.000342 | 1.61e+06 | – | – | – | – | – | – | – | – | –
5 | HuAb013 (antibody, V domains shown, Humanized version of cmAb011; also called humanized VL1 / humanized VH4) VH: QVQLVQSGAEVKKPGASVKVSCKASGYRFTDYELHWVRQAPGQGLEWMGGIDPKTGGTAYNQKFKGKVTLTSDRSTSTVYMELSSLRSEDTAVYYCARSGGRWYFDVWGQGTTVTVSS VL: DIVLTQSPASLAVSPGQRATITCRTSESVSIHLLHLMHWYQQKPGQPPKLLIYGASNLESGVPARFSGSGSGTDFTLTINPVEAEDTANYYCQQSIKDPYTFGGGTKVEIK | – | – | – | – | 0.0325 | 16300 | 0.0326 | 24400 | 0.18 | 0.000292 | 1.63e+06 | ~0.1 | – | – | – | – | – | – | – | –
6 | HuAb009 (antibody, V domains shown, Humanized version of cmAb011; also called humanized VL1 / humanized VH3) VH: QVQLVQSGAEVKKPGASVKVSCKASGYRFTDYELHWVKQAPGQGLEWIGGIDPKTGGTAYNQKFKGRVTMTSDRSTSTVYMELSSLRSEDTAVYYCARSGGRWYFDVWGQGTTVTVSS VL: DIVLTQSPASLAVSPGQRATITCRTSESVSIHLLHLMHWYQQKPGQPPKLLIYGASNLESGVPARFSGSGSGTDFTLTINPVEAEDTANYYCQQSIKDPYTFGGGTKVEIK | – | – | – | – | 0.0711 | 16600 | 0.0719 | 20900 | 0.188 | 0.000267 | 1.42e+06 | – | – | – | – | – | – | – | – | –
7 | OSE127 (Tab2) (antibody, human IgG4 S228P, kappa, V domains shown, also called benchmark antibody OSE127) VH: QVQLVESGGGLVKPGGSLRLSCAVSGFTLSDYYMAWIRQAPGKGLEWVSTISASGLRTYYPDSVKGRFTISRDNAKNSLYLQMNSLRAEDTAVYYCARPLSAHYGFNYFDYWGQGTLVTVSS VL: DIQMTQSPSSLSASVGDRVTITCRTSEDIYQGLAWYQQKPGKAPKLLLYSANTLHIGVPSRFSGSGSGTDYTLTISSLQPEDFATYYCQQYYDYPLAFGGGTKVEIKR | – | – | – | – | 0.51 | 19100 | 0.387 | 24300 | 0.385 | 0.000252 | 656000 | – | ~0.03 | ~0.1 | ~0.3 | ~0.02 | ~0.07 | ~0.08 | ~0.2 | –
8 | ADX-914 (Tab1) (antibody, human IgG1, kappa, V domains shown, also called benchmark antibody ADX-914) VH: EVQLVESGGGLVQPGRSLRLSCAASGFTFDDHAMHWVRQAPGKGLEWVSGISWNSRGIGYADSVKGRFTIFRDNAKNSLYLQMNSLRAEDTALYYCAKDEYSRGYYVLDVWGQGTTVTVSS VL: AIQLTQSPSSLSASVGDRVTITCRASQGISSALAWYQQKPGKAPKLLIYDASSLESGVPSRFSGSGSGTDFTLTISSLQPEDFATYYCQQFNSYPLWITFGQGTRLEIKR | – | – | – | – | 0.289 | 20800 | 0.31 | 26000 | 0.258 | 0.000297 | 1.15e+06 | – | ~0.03 | – | ~0.2 | ~0.01 | – | – | ~0.1 | ~0.1
9 | cmAb011 (chimeric Ab011) (antibody, V domains shown, also called chimeric antibody Ab011) VH: QVQLQQSGAELMRPGASVTLSCKTSGYRFTDYELHWVKQTPVRGLEWIGGIDPKTGGTAYNQKFKGKAILTSDRSSSTTYMELRSLASEDSAVYYCTRSGGRWYFDVWGTGTTVTVSS VL: DIVLTQSPASLAVSLGQRATISCRTSESVSIHLLHLMHWYQQKPGQPPKLLIYGASNLESGVPARFSGSGSETDFTLNIHPVEEEDAATYFCQQSIKDPYTFGGGTKLEIKR | – | – | – | – | 0.134 | 18400 | 0.0842 | 22400 | 0.143 | 0.000234 | 1.64e+06 | – | ~0.04 | – | ~0.3 | ~0.02 | – | – | ~0.2 | –
